This sample holds only a part of the variants without activity.
B1: TPR 5TU (parent)
chain: GGAUCUUCUCGAUCUAACAAAAAAGACAAAUCUGCCACAAAGCUUGAGAGCAUCUUCGGAUGCAGAGGCGGCAGCCUUCGGUGGCGCGAUAGCGCCAACGUUCUCAACUAUGACACGCAAAACGCGUGCUCCGUUGAAUGGAGUUUAUCAUG

Variants of: B1
Experiment: polymerase ribozyme fitness, log enrichment relative to wild type (log ratio); higher = more active; in vitro selection for triplet polymerase activity
Summary of the method: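 Fitness measures genotype enrichment against wild-type enrichment on a logarithmic scale, with inverse-variance-weighted averaging of replicates. The logarithm is base 2, and genotypes were kept only with ≥10 input reads and ≥1 read per output in Illumina sequencing. The sequenced libraries came from one triplicate in vitro selection round, including frozen incubation at −7 °C, of PCR-built, transcribed mutant libraries of each subunit of a heterodimeric triplet polymerase ribozyme.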

First: GGAUCUUCUCGAUCUAACAAAAAAGACAAAUCUGCCACAAGGCUUGAGAGCAUCUUCGGAUGGAGAGGCGGCAAUCUUCGGUGGCGCGAUAUCGCCAACGUUCUCAACUAUGACACGCAAAACGCGUGCUCCGUUGAAUGGAGCUUAUCAUG
Second: GGAUCUUCUCGAUUUAAAAAAAAAGACAAAUCUGCCACAAAGCUUGAGAGCAUCUUCGGACGCAGAGGCGGCAGCCUUCGGUGGCGCGAUAGCGCCAACGUUCUCAACUAUGACACGCAAAACGCGUGCUCCGUUGAAGGGAGUUUAUCAUG
The “polymerase ribozyme fitness (log ratio)” value of the first is higher: -3.87 for the first, -4.16 for the second.

First: GGAUCUUCUCGAUCUAACAAAAAAGACAAAUCUGCCACAAAGCUUGAGAGCCUCUCCGGAUGCAGAGGCGGCAGCCUUCGGUGUCGCGAUAGCGCCAACGUUCUCAACUAUGACACGCAAAACGCGUGCUCCGUUGAAUGGAGUUUAUCAUG
Second: GGAUCUUAUCGAUCUAACAAAAAAGACAAAUCUGCCACAAAGCUUGAGAGCAUCUUCGGAUGCAGAUGCGGCAGCCAUCGGUUGCGGGAUAGCGCCAACGUUCUCAACUAUGACACGCAAAACGCGUGCUCCGAUGAAUGCAGGUUAUCAUG
The “polymerase ribozyme fitness (log ratio)” value of the first is higher: -4.01 for the first, no more than -4.2 for the second.

Going from GGAUCUUCUCGAUCUAACACAAAAGACAAAUCUGCCACAAAGCCUGAGAGCAUCGUCGGAUGCAGAGGAGGCAGCCUUCGGUGGCGCGAUAGCGCCAACGUUCUCAACUAUGACACGCAAAACGCGUGCUCCGUUGAAUGGAGUUUAUCAUG to GGAUCUUCUCGAUCUAACAAAAAAGACAAAUCAGCCACAAAGCUUGAGAGCAUCUUCGGAUGCAGAGGCGGCAGCCUUCGGUGGCGCGAUAGCGCCAACGUUCUCAACUAUGACACGCAUAACGCGUGCUCCGUUGAAUGGAGUUUAUCAUG, the “polymerase ribozyme fitness (log ratio)” value rises from no more than -4.2 to -4.01.

First: GGAUCUUUUCGAUCUAACAAAAAAGACAAAUCUGCCACAAAGCUUGAGAGCAUCUUCGGAAGCAGAGGCGGCAGCCUUCGGUGGCGCGAUAGCGACAACGUUCUCAACUAUGACACGCAAAACGCGUGCUCCGUUGAAUGGAGUUGAUCAUG
Second: GGAUCUUCUCGAUCUAACAAAAAAGACAAAUCUGCCACAAAGCUUGAGAGCAUGAUCGGAUGCAGAGGCGGCAGCCUUCGGUGGCGCGAUAGCUCCACCGUUCUCAACUAUGACACGCAAAACGCGUGCUCCGUUGAAUGGAGUUUAUCGUG
The “polymerase ribozyme fitness (log ratio)” value of the first is lower: no more than -4.2 for the first, -3.84 for the second.

Compared with GGAUCUUCUCGAUCUAACAAAAAAGACAAAUCUGCCACAAAGCUUGACAGCAUCUUCGGAUGCAGAGGCGGCAGCCUUCGGUGGAGCGAUAGCGCCAACGUUCUCAACUAUGACACGCAAAACGCGUGCUCCGUUGAAUGGAGUUUAUCAUG, GGAUCUUCUCGAUCUAACAAAAAAGACAAAUCUGCCACAAAGCUUGAGAGCAUCUUCGAAAGCAGAGGCGGAAGCCUUCGGUGGCGCGAUAGCGCCAACGUUCUCAACUAUGACACGCAAAACGCGUGCUCCGUUGAAUGGAGUUUAUCAUG is lower in “polymerase ribozyme fitness (log ratio)” value: -2.58 for the first, no more than -4.2 for the second.

First: GGAUCUUCUCGAACUAACAAAAAAGACAAAUCUGCCACAAAGCUUGUGAGCAUCUUCGGAUGCAGAGGCGGCAGCCUUCGGUGGCUCGAUAGCGCCAACGUUCUCAACUAUGACACGCAAAACGCGUGCUCUGUUGAAUAGAGUUUAUCAUG
Second: GGAUCUUCUCGAUCUAACAGAAAAGACAAAUCUGCCACAAAGCUUGAGAGCAUCUUCGGAUGCAGAGGCGGCAGCCUUCGGUUGCGCGAUAGCGCCAACGUUCUCAACUAUGACACGCAAAACGCGUGCUCCGUUGAAUGGAGUUUAUCAUG
The “polymerase ribozyme fitness (log ratio)” value of the first is lower: -3.17 for the first, -0.993 for the second.

Compared with GGAUCUUCUCGAUCUAAUAAAAAAGACAAAUCUGCCACAAAGCUUGAGAGCAUCUUCGGAUGCAGAGGCGGCAGCCUUCGGUGGAGCGAUAGCGCCAACGUUCUCAACUAUGACACGCAAAACGCGUGCUCCGUUGAAUGGAGUUUAUCAUG, GGAUCUUCUCGAUCUAACAAAAAAGACAAAUCUGCCACAAAGCUUGAGAGCAUCUACGGAUGCAGAGGCGGCAGCCUUCGGUGGCGUGAUAGCGCCAACGUUCUCAACUAUGACACGCAAAACGCGUGCUCCGUUGAAUGGAGUUUAUCAUG is lower in “polymerase ribozyme fitness (log ratio)” value: -0.837 for the first, -1.66 for the second.

Compared with GGAUCAUCUCGAUCUAACAAAAAUGACAAAUCUGCCACAAAGCUUGAGAGCAUCUUCGGGUGCAGAGGCGGCAGCCUUCGGUGGCGCGAUAGCGCCAACGUUCUCAACUAUGACACGCAAAACGCGUGCUCCGUUGAAUGGAGUUUAUCAUG, GGAACUUCUCGAUCUAACAAAAAAGACAAAUCUGCCACAAAGCUUGAGAGCAUCUUCGGAUGCAGAGGCGGCAGCCUUCGGUGGCGCGAUAGCCCCAACGUUCUCAACUAUGACACGCAAAACGCGUGCUCCGUUGAAUGGAGUUUAUCAUG is lower in “polymerase ribozyme fitness (log ratio)” value: 0.116 for the first, -0.637 for the second.

GGAUCUUCUCGGUCUAACAAAAAAGACAAAUCUGCCACAAAGCUUGAGAGCAUCUUCGGAUGCAGAGGCGGCAGCCUUCGGUGGAGCGAUAGCGCCAACGUUCUCAACUAUGACACGAAAAACGCGUGCUCCGUUGAAUGGAGUUUAUCAUG and GGAUCUUCUCGAUCUAACAAAAAAGACAAAUCUGCCACAAAGCUUUAGAGCAUCUUCGGAUGCAGAGGCGGCAGCCUUCGGUGGCGCGAUAGCGCCAACGUUCUCAACUAUGACACGCAAAACGCGUGCUCCGUUGAAUGGAGCUUAUCAUG are within 0.2 log units of each other in “polymerase ribozyme fitness (log ratio)” value: -0.759 for the first, -0.573 for the second.

With GGAGCUUGUCGAUCUAACGAAAAAGACAAAUCUGCCACAAAGCUUGAGUGCACCUUCGGAUGCAGAGGCGGCGGCCUUCGGUAGCGCGAUAGCGCCAGCGUUCUCAACUAUGCCUCGCAAAACGCGUGCUCCGUUGAAUGGAGUUUAUCAUG the “polymerase ribozyme fitness (log ratio)” value was no more than -4.2.

Reference: the RNAGym collection of RNA variant scans (doi:10.1073/pnas.2313332121)
